Measured values: the nanobody polyreactivity screen of Harvey et al. (2022)

Test: yeast display, Sf9 membrane polyspecificity reagent, FACS + sequencing; frameworks hold sequencing errors
How it was run: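 Nanobodies from a synthetic yeast display library (Saccharomyces cerevisiae BJ5465), induced 36–48 hours with galactose, were stained 1 hour at 4 °C with 10% biotinylated, detergent-solubilized Sf9 membrane reagent, enriched on streptavidin microbeads, then FACS-sorted. Anti-HA (expression) and streptavidin (reagent binding) fluorescence set low and high (top ~1%) gates. Polyreactivity labels come from the gate of origin. Genes were colony-PCR amplified, MiSeq 2 × 250 sequenced and filtered by CDR length.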

Row | Sequence | polyreactivity (PSR sort gate)
1 | QVQLVESGGGLVQAGGSLRLTCAASGRTFAINVMGWYIQAPGKERELVASIRGRGGRTNYADSVKGRFTISRDNAKNTVYLQMNRLKPEDTAVYYCAASQWWRYDYWGQGTQVTVSS | high polyreactivity
2 | QVQLVESGGGLVQAGGSLRLTCAASGRTFAYNAMGWYRQAPGKERELVAAITSSGTSTYYADSVKGRFTISRDNAKNTVYLQINCLKPEDTAVYYCAGRQSQKYGLFYYWGQGTQVTVSS | high polyreactivity
3 | QVQLVESGGGLVQAGGSLRLTCAASGRTFEQNAMGWNRPAPGKERELVASITSVGSTDYADSVKGRFTISRDNAKNTVYLQMNSLKPEDTAVYYCAKTLGSQNYDFDYWGQGTQVTVSS | low polyreactivity
4 | QVQLVESGGGLVQAGGSLRLTCAASGRTFGINAMGWYRQAPGKERELVAAIDSIDGTTYYADSVKGHFTISRDNAKNTVYLPMNRLKPAATAVYYCAAEFISSYDYWGQGTQVTVSS | high polyreactivity
5 | QVQLVESGGGLVQAGGSLRLTCAASGRTFRNYAMGWYRQAPGKEREMVAAISRSGGITYYADSVKGRFTISRDNAKNTVYLQMNSLKPEDTAVYYCAARHSYQGPGTYPMYYWGQGTQVTVTS | high polyreactivity
6 | QVQLVESGGGLVQAGGSLRLTCAASGRTFSVNAMGWYRQAPGKEREFVAAIRTSGGSTSYADSVKVRFTISRDNAKYTVFLQMSSLKPEDTAVYYCAADYGGTSYVRGTVGRKYDYWGQGTQVTVSS | high polyreactivity
7 | QVQLVESGGGLVQAGGSLRLTCAASGRTFSYNAMGWYRQAPGKERELVAAISYDGGRTYYADSVKGRFTISRDNAKNSVYLQMNSLKPEDTAVYFCAAYPYRCPHPWTIGDYWGQGTQVTVSS | low polyreactivity
8 | QVQLVESGGGLVQAGGSLRLTCAASGRTFTTYAMGWYRQAPGKERELFAAISGSGGSTYYADSVKGRFTISRDNAKNTVYLQMNSLKPEGTAVYYCATAYYYHGGYYYPYDDYWGQGTQVTVSS | low polyreactivity
9 | QVQLVESGGGLVQAGGSLRLTCAASGRTLRYNAMGWYRPAPVKERELVAAITSTGSTNYADSVKGRFTISRDNAKLTVYLHMNSLTAEDTAVYYCAKTSRYYWYGYDYWGQGTQVTVSS | high polyreactivity
10 | QVQLVESGGGLVQAGGSLRLTCAASGSIFGNNAMGWYRQATGKERELVAVITDGGNTYYADSVKGRFTISRDNAKNTVYLQMNSLKPEDTAVYYCNAEWWGDSVYWGQGTQVTVSS | low polyreactivity
11 | QVQLVESGGGLVQAGGSLRLTCAASGSIFGYAMGWYRQEPGKERELVAAISFSGVSTYYADSVKGRFTISRDNAKNTVYLLMNSLKPEDTAVYDCNAYSDGDEDYWGQGTQVTVSS | low polyreactivity
12 | QVQLVESGGGLVQAGGSLRLTCAASGSIFSFYAMGWYRQAPGKERELVAAITQSDSSTYYADSVKGRFTISRDNAKNTVYLQMNSLKPVDTAVYYCAKDYYAYSDYDYWGQGTQVTVSS | low polyreactivity
13 | QVQLVESGGGLVQAGGSLRLTCAASGSIFSHYAMGWYRQATGKERELVAAITYGGGSTYYADSVKGRFTISRDIAMNTVYLQMNSLKPDDTAVYYCAKEFKYWGYPYDYWGQGTQVTVSS | low polyreactivity
14 | QVQLVESGGGLVQAGGSLRLTCAASGSIFSLNVMGRYRQAPGKERELVATIRGRGTSTYYADSVKGRFTISRYNAKINVYLHMNSLKPEDTAVYYWAARGHGAYGYWGQGTQVTVSS | low polyreactivity
15 | QVQLVESGGGLVQAGGSLRLTCAASGSIFSYNVMGWYRQAPGKERELVAVITGSGGSTYYADSVKGRFTISRDNAKNTVYLQMYSLKPEDTAVYYCAATYSGWQWYETYYYWGQGTQVTVSS | low polyreactivity
16 | QVQLVESGGGLVQAGGSLRLTCAASGSIFVNNAMGWYRQAPGKEMELVAAIRRSGGNTYYADSVKGRFTISRDNAKNTVYLQMNSLIPEDTAVYYCNVVRRADSIRAKSRDYWGQGTQVTVSS | high polyreactivity
17 | QVQLVESGGGLVQAGGSLRLTCAASGSIFVQYAMGWYRQAPGKERELVATISSSGGSTYYADSVKGRCTISRDNAKNTVYLQMNSLKPEDTAVYYFAADWTLDRSYGYYADDYWGQGTQVTVSS | low polyreactivity
18 | QVQLVESGGGLVQAGGSLRLTCAASGSIFYWYAMGWYRQAPGKERELVAAISSSGSTNYADSVKGRFTISRDNAKNTVYLQMNSLKPEDTAVYYCGAYRTGYNGWGYGYWGQGTQVTVSS | high polyreactivity
19 | QVQLVESGGGLVQAGGSLRLTCAASGSIIALYAMGWYRQAPGKERELVATISSCVSTYYADSVKGRFTISRDNAKNTVYLQLNSLKPEDTAVYYCAADKTVRSSNYDYWGQCTQVTVSS | low polyreactivity
20 | QVQLVESGGGLVQAGGSLRLTCAASGSILIYNAMGWYRQAPGKQRELVADITNGGSTNYADSVKGRFTISRDNAKNTVYLQMHSLKPDDTAVYYCAKDAYYWWGPDYDYWGQGTQVTVSS | low polyreactivity
21 | QVQLVESGGGLVQAGGSLRLTCAASGSISGLYTMGWYRQAPGKERELVAAIRWTTGTTYYADSVKGRFTISRDNAKNTVYLQMNSLKPEDTAVYYCNVVTWYYVFRPWEYDYWGQGTQVTVSS | low polyreactivity
22 | QVQLVESGGGLVQAGGSLRLTCAASGSTFAGNAMGWYRQATGKERELVAAIDSSTGSTYYADSVKGRFTISRDNAKNTVYLQMNSLKPEDSAVYYCNKTSFLVKLDYWGQGTQVTVSS | low polyreactivity

Row | Sequence | polyreactivity (PSR sort gate)
23 | QVQLVESGGGLVQAGGSLRLTCAASGSTFFPNDMGWYRQAPGKERELVDAISWRGGNTYADSVKGRFTISRDNAKNTVLLQMNSLKPEDTAVYYCAADVEWTSRGSYYRYYYWGQGTQVTVSS | low polyreactivity
24 | QVQLVESGGGLVQAGGSLRLTCAASGSTFLFYARGWYRQAPGKERELVAAIRGRGGSTYYADSVKGRFTISRDNAKNTVYLQMNSLKPEDTAVYYCAALSRFPVNRYSDLDLYYWGEGTQVTVSS | high polyreactivity
25 | QVQLVESGGGLVQAGGSLRLTCAASGSTFRYYVMGWYRQAPGKERELVAGISYRGGTTYYADSVKGRFTISRDNAKNTVYLQMNSLKPEDTAVYYCNAETAAAQASYDRLYVLLDYWGQGTQVTVSS | low polyreactivity
26 | QVQLVESGGGLVQAGGSLRLTCAASGSTFYIYAMGWYRQAPGKERELVAAISQGGGSTSYADSVKGRFTISRDYAKNTVYLQMNSLKPEDTAVYYCAARRASRVRGKEGGYWGQGSQVTVSS | high polyreactivity
27 | QVQLVESGGGLVQAGGSLRLTCAASGSTFYIYAMGWYRQAPGKERELVARISGSGGSTYYADSVKGRFTISRDNAKNTVYLQMNSLKPEDTAVYYCAADDIYKYYQYYAFPYYRYDYWGQGTQVTVSS | low polyreactivity
28 | QVQLVESGGGLVQAGGSLRLTCAASGSTFYLNAMGWYRQATGKERELVAAITVSGGSTYYADSVKGRFTISRDNAKNTVYLQMNSLKPVDTAVYYCARELLSPTYQRWYYYWGQGTQVTVSS | low polyreactivity
29 | QVQLVESGGGLVQAGGSLRLTCAASGSTFYTYAMGWYRQAPGNERELVAALSYGGGITYYADSVKGRFTISRDNEKNTVYIQMNSLKPEDTAVYYCAAVNGWQRYEFWGQGTQVTVSS | high polyreactivity
30 | QVQLVESGGGLVQAGGSLRLTCAASGSTIVRNAMGWYRQAPGKEREFVAAIDWRGGSTSYADSVKGRFTISRDNAKNTVYLQMHSLKPADTAVYYCAAARRARELRSGQGSTYGNEYWGLGTQVTVSS | high polyreactivity
31 | QVQLVESGGGLVQAGGSLRLTCAASGSTSYSNAMGWYRQAPGKERELVAAINRRGDSTYYADSVKGRFTISRDNAKNTVYLQMNSLKPEDTAVYYCNKVVRVYLGRFQYYSWGQGTQVTVSS | high polyreactivity
32 | QVQLVESGGGLVQAGGSLRLTCAASGYIFGIYAMGWYRQAPGKERELVAAITTSSGSTYADSVKGRFTISRDNAKNTVYLQMNSLKPEDTAVYYCAADGYLYSYPGHRRASYDYWGQGTQVTVSS | low polyreactivity
33 | QVQLVESGGGLVQAGGSLRLTCAASGYTFAGNAMGWYRQAPGKERELVAALSRSGGRTYYADSVKGRFTISRDNAKTTVYLQMNSLKPEDTAVYYCAASYRYTEYVSTWGFGYWGQGTQVTVSS | high polyreactivity
34 | QVQLVESGGGLVQAGGSLRLTCAASGYTFRRYAMGWYRQAPGKERELVAAITRDDSTNYADSVKGRFTISRDNGKNTVYLQMNSLKPEDTAVYYCAAAVGLRRYSPLHLLYYYWGQGTQVTVSS | high polyreactivity
35 | QVQLVESGGGLVQAGGSLRLTCAASRSIFYPNAMGWYRQAPGKETELVAAISSSGGTNYADSVKGRFTISRDNAQNTVYLQMNSLKPEDTAVYYCNARDKVRYRYSLMDYWGQGTQVTVSS | low polyreactivity
36 | QVQLVESGGGLVQAGGSLRLTCAASVSTFSRYAMGWYRQAPGKERELVAAISWRGGRTYYADSVKGRFTISRDNAKNTVYLQMNSLKPEDTAVYYCNAVSSFTSPRYDYWGQGTQVTVSS | high polyreactivity
37 | QVQLVESGGGLVQAGGSLRLTCAGSGRIFPFYAMGWYRHAPGKERELVAAISWNGGSTFYADSVKGRFTISRDNAKNTVYLQMNSLKPEDTAVYYCNADFRPAYTYDYWGQGTQVTVSS | low polyreactivity
38 | QVQLVESGGGLVQAGGSLRLTCAPSGSTLLVYAMGWNRQAPGKERELVAAISGSGGRTSYADSVKGRFTISRDNAKNTVYLQMNSLKPEDTAVYYCAARRAGTYDYWGEGTQVTVSS | high polyreactivity
39 | QVQLVESGGGLVQAGGSLRLTCDASGSSFIFNAMGWSRQAHGIEMELVAGITRRVDSTFYADSVKGRFTISRDNAKNTVYLQMTSLKPEDTGVFFFAARQYSGVKYNYWGQGTEVTVSS | high polyreactivity
40 | QVQLVESGGGLVQAGGSLRLTCDASGSTFVNYAMGWYRQAPGKERELVAAITDSGGSTYYADSVKGRFTISRDNAKNTVYLQMNCLKPEDTAVYYCATEGYYYYTSYDYWGQGTQVTVSS | low polyreactivity
41 | QVQLVESGGGLVQAGGSLRLTCSASGFIFRYYAKGWSRQAPGKERELVAAISTSGGSTYYADSVKGRFTISRDIAKNTVYLQMNSLKPEDTAVYYCAASTNTDRDFWGQGTQVTVSS | high polyreactivity
42 | QVQLVESGGGLVQAGGSLRLTWAASGSIFTYYTRGWYRQAPGKERELVATIRYTGGNTYYADSVKGRFTISRDNAKNTVYLQMNILKPEDTAVYYCATGYSYRNVPTFRWLYYWGQGTQVTVSS | low polyreactivity
43 | QVQLVESGGGLVQAGGSLRVSCAASGFIFVRNTMVWYRQAPGKERELVAGIRYSGGSTYYADSVKGRFTISRDNAKNTVFLQMNSQKTEDTAVYYCAARSHRRLMYYWGQGTQVNVSS | high polyreactivity
